Test results reported in US20100291114A1 (published 2010).

T1: His-tagged IgD2-D3 of human FGFR3-IIIb (human, UniProt P22607-2 143-374, limits assumed)
T1 construct: domain: IgD2-D3; also called FGFR3-IIIb-His protein; Human FGFR3 ECD IIIb; not shown: His tag
T1 sequence (looked up): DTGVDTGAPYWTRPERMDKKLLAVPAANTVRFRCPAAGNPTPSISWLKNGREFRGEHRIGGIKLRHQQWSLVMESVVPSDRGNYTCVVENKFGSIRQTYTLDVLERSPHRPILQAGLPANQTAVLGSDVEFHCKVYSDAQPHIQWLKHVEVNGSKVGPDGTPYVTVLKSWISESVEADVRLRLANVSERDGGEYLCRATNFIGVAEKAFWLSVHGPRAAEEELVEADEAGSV

T2: His-tagged IgD2-D3 of human FGFR3-IIIc (human, UniProt P22607 143-372)
T2 construct: domain: IgD2-D3; also called FGFR3-IIIC-His protein; IIIc-His protein; not shown: His tag
T2 sequence: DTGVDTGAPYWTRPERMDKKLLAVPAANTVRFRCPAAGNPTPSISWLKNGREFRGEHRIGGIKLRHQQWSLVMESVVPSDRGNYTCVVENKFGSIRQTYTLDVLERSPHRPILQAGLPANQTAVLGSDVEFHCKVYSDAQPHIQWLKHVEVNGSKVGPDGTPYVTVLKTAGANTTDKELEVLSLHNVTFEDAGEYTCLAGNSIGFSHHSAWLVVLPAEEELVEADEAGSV

T3: human FGFR3-IIIc ECD-human Fc chimeric protein (human, UniProt P22607 23-375)
T3 construct: extracellular domain; Made in CHO cells, purified on protein A; also called FGFR3-Fc chimeric protein; not shown: human Fc
T3 sequence (looked up): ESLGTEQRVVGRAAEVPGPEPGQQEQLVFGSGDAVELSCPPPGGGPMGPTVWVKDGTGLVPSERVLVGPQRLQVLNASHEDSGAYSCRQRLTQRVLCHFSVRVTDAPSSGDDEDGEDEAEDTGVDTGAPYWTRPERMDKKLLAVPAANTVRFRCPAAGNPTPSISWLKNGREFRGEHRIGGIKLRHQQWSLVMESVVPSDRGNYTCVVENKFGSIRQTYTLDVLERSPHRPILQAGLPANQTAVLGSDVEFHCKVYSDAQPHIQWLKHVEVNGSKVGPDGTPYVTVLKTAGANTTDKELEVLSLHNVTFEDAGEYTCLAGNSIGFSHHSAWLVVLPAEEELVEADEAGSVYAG


Key:
[1] = biological target: human FGFR3 (isoform and construct not stated) (human) (UniProt P22607); assay: Scatchard analysis, radioiodinated antibody cell binding; RT112 cells
[2] = biological target: human FGFR3 (isoform and construct not stated) (human) (UniProt P22607); assay: Scatchard analysis, radioiodinated antibody cell binding; UMUC-14 cells
[3] = biological target: human FGFR3 (isoform and construct not stated) (human) (UniProt P22607); assay: Scatchard analysis, radioiodinated antibody cell binding; KMS11 cells
[4] = biological target: human FGFR3 (isoform and construct not stated) (human) (UniProt P22607); assay: Scatchard analysis, radioiodinated antibody cell binding; OPM2 cells
[5] = biological target: T1, His-tagged IgD2-D3 of human FGFR3-IIIb; assay: BIAcore SPR; antibody on CM5 chip, FGFR3-His protein injected
[6] = biological target: T2, His-tagged IgD2-D3 of human FGFR3-IIIc; assay: as above
[7] = biological target: human FGFR3 (isoform and construct not stated) (human) (UniProt P22607); assay: cell-based or functional assay
[8] = biological target: T3, human FGFR3-IIIc ECD-human Fc chimeric …; assay: competition ELISA; FGFR3-IIIc-Fc captured, antibody titrated, then FGF9 and heparin; competitor FGF9
[9] = biological target: T2, His-tagged IgD2-D3 of human FGFR3-IIIc; assay: BIAcore SPR; R3 Ab on the chip, FGFR3-IIIc-His protein injected, 25 C
[10] = biological target: T3, human FGFR3-IIIc ECD-human Fc chimeric …; assay: competition ELISA; FGFR3-IIIc-Fc captured, antibody titrated, then FGF1 and heparin; competitor FGF1

Row | Molecule | Kd [5] [nM] | Kd [6] [nM] | increased inhibitory activity in the Ba/F3-FGFR3 viability assay (fold greater than parent clone 184.6) [7] | also measured
1 | R3Mab |  |  |  | Kd [1]: 0.16 nM; Kd [2]: 0.34 nM; Kd [3]: 0.35 nM; Kd [4]: 0.64 nM
2 | anti-FGFR3 antibody clone 184.6.1 (antibody, V domains shown) VH: EVQLVESGGGLVQPGGSLRLSCAASGFTFTSTGISWVRQAPGKGLEWVGRIYPTNGSTNYADSVKGRFTISADTSKNTAYLQMNSLRAEDTAVYYCARARTYGIYDLYVDYTEYVMDYWGQGTLV VL: DIQMTQSPSSLSASVGDRVTITCRASQDVDTSLAWYQQKPGKAPKLLIYSASFLYSGVPSRFSGSGSGTDFTLTISSLQPEDFATYYCQQSTGHPQTFGQGTKVEIKR | 0.264 | 1.44 | 100 | 
3 | anti-FGFR3 antibody clone 184.6.1N54S (antibody, V domains shown) VH: EVQLVESGGGLVQPGGSLRLSCAASGFTFTSTGISWVRQAPGKGLEWVGRIYPTSGSTNYADSVKGRFTISADTSKNTAYLQMNSLRAEDTAVYYCARARTYGIYDLYVDYTEYVMDYWGQGTLV VL: DIQMTQSPSSLSASVGDRVTITCRASQDVDTSLAWYQQKPGKAPKLLIYSASFLYSGVPSRFSGSGSGTDFTLTISSLQPEDFATYYCQQSTGHPQTFGQGTKVEIKR |  |  |  | IC50 [8]: 1.3 nM; Kd [9]: 3.52 nM; koff [9]: 0.00032 s⁻¹; kon [9]: 91000 M⁻¹ s⁻¹; IC50 [10]: 1.7 nM
4 | anti-FGFR3 antibody clone 184.6 (antibody, V domains shown, The tie to the clone name is indirect) VH: EVQLVESGGGLVQPGGSLRLSCAASGFTFTSTGISWVRQAPGKGLEWVGRIYPTNGSTNYADSVKGRFTISADTSKNTAYLQMNSLRAEDTAVYYCARARTYGIYDLYVDYTEYVMDYWGQGTLV VL: DIQMTQSPSSLSASVGDRVTITCRASQDVSTAVAWYQQKPGKAPKLLIYSASFLYSGVPSRFSGSGSGTDFTLTISSLQPEDFATYYCQQSYTTPPTFGQGTKVEIKR | 38 | 110 |  | 
5 | anti-FGFR3 antibody clone 184.6.58 (antibody, V domains shown) VH: EVQLVESGGGLVQPGGSLRLSCAASGFTFTSTGISWVRQAPGKGLEWVGRIYPTNGSTNYADSVKGRFTISADTSKNTAYLQMNSLRAEDTAVYYCARARTYGIYDLYVDYTEYVMDYWGQGTLV VL: DIQMTQSPSSLSASVGDRVTITCRASQDVDISLAWYQQKPGKAPKLLIYSASSLASGVPSRFSGSGSGTDFTLTISSLQPEDFATYYCQQGAGNPYTFGQGTKVEIKR | 0.19 | 0.88 | 100 | 
6 | anti-FGFR3 antibody clone 184.6.62 (antibody, V domains shown) VH: EVQLVESGGGLVQPGGSLRLSCAASGFTFSTTGISWVRQAPGKGLEWVGRIYPLYGSTHYADSVKGRFTISADTSKNTAYLQMNSLRAEDTAVYYCARARTYGIYDLYVDYTEYVMDYWGQGTLV VL: DIQMTQSPSSLSASVGDRVTITCRASQDVSTAVAWYQQKPGKAPKLLIYSASFLYSGVPSRFSGSGSGTDFTLTISSLQPEDFATYYCQQTYTTSLTFGQGTKVEIKR | 0.12 | 2.24 | 100 | 
